Two proteins from PMC3904827, “Segmental Helical Motions and Dynamical Asymmetry Modulate Histidine Kinase Autophosphorylation” (PLoS Biology, 2014) can be followed below.

For orientation: stoichiometry N means the number of molecules, sites or subunits per partner or assembly.

Where a chain is given by its changes, count along the chain named.

Series [1] deals with the molecule itself. As to the kind of experiment: crystal structure; monomers to homodimer; vapor diffusion at 18°C, protein at ~15 mg/ml, in complex with nucleotides; five crystal forms (C222_(1), P3_(1)21, P6_(1)22, C2, I2).
Series [2] deals with the molecule itself. As to the kind of experiment: crystal structure; dimers to tetramer (dimer of dimers) as seen in the hexagonal and monoclinic crystal forms; vapor diffusion at 18°C, protein at ~15 mg/ml.

B1: full cytoplasmic region of E. coli CpxA (CpxAHDC), wild type (domain or fragment, Escherichia coli, UniProt P0AE82 188-457, looked up)
chain: KPARKLKNAADEVAQGNLRQHPELEAGPQEFLAAGASFNQMVTALERMMTSQQRLLSDISHELRTPLTRLQLGTALLRRRSGESKELERIETEAQRLDSMINDLLVMSRNQQKNALVSETIKANQLWSEVLDNAAFEAEQMGKSLTVNFPPGPWPLYGNPNALESALENIVRNALRYSHTKIEVGFAVDKDGITITVDDDGPGVSPEDREQIFRPFYRTDEARDRESGGTGLGLAIVETAIQQHRGWVKAEDSPLGGLRLVIWLPLYKRS
notes: Sensor histidine kinase CpxA, Escherichia coli, full cytoplasmic region: HAMP domain (residues 188-237) and DHp and CA domains (residues 238-457); The trigonal (4BIV) and hexagonal (4CB0) crystals were grown from seleno-methionyl protein; Crystallised with ADP or ATP; also called CpxA transmitter core; wild-type CpxAHDC; source: SeMet protein from E. coli B834 (DE3)
Consider B1, for which the “stoichiometry N” value in series [1] is 2; in series [2] it was 4.

B2: point mutant CpxA_(HDC_M228V) of the full cytoplasmic region of E. coli CpxA (domain or fragment, Escherichia coli, UniProt P0AE82 188-457, looked up)
chain: B1 chain with M41V
notes: Sensor histidine kinase CpxA, Escherichia coli, full cytoplasmic region (HAMP 188-237, DHp and CA 238-457) with the point mutation Met228-Val in the HAMP domain; Probably made like wild-type CpxAHDC (His-tagged, pET28a+, E. coli, IMAC and gel filtration), but the methods describe only the CpxAHDC construct; Crystallised with AMPPNP or ADP; also called CpxAHDC Met228-Val; source: purified protein
Turning to B2, the “stoichiometry N” value in series [1] was found to be 2; in series [2], 4.
